Source: patent US20260132182A1 (published 2026)
Starred links: 1 amine or outer side, 2 acyl side, 3 side chain; linkers in the order of their positions; H or OH if unused. Non-standard residues stand in square brackets, D forms with d. Groups on a side chain read outwards from the residue. *: point of attachment. Butyryl(4-SO2NHCO(CH2)16Tz) = O=C(CCCCCCCCCCCCCCCCc1nnn[nH]1)NS(=O)(=O)CCCC(=O)*; Undecanoyl(11-OPh(4-COOH)) = O=C(O)c1ccc(OCCCCCCCCCCC(=O)*)cc1; Decanoyl(10-(4-HOOC-PhO)) = O=C(O)c1ccc(OCCCCCCCCCC(=O)*)cc1; Decanoyl(10-O(3-COOH-Ph)) = O=C(O)c1cccc(OCCCCCCCCCC(=O)*)c1; C20 diacid = O=C(O)CCCCCCCCCCCCCCCCCCC(=O)*; C18 diacid = O=C(O)CCCCCCCCCCCCCCCCC(=O)*; γGlu = O=C(O)[C@H](CCC(=O)[*:2])N[*:1]; C14 diacid = O=C(O)CCCCCCCCCCCCC(=O)*; Desaminohistidyl = O=C(CCc1c[nH]cn1)*; εLys = N[C@@H](CCCCN[*:1])C(=O)[*:2]; Trx = NC[C@H]1CC[C@H](C(=O)O)CC1; AEEA = NCCOCCOCC(=O)O; Aib = CC(C)(N)C(=O)O

T1: human amylin-3 (a) receptor (human, UniProt P30988 25-474; O60896 24-148)
T1 sequence (looked up) 1: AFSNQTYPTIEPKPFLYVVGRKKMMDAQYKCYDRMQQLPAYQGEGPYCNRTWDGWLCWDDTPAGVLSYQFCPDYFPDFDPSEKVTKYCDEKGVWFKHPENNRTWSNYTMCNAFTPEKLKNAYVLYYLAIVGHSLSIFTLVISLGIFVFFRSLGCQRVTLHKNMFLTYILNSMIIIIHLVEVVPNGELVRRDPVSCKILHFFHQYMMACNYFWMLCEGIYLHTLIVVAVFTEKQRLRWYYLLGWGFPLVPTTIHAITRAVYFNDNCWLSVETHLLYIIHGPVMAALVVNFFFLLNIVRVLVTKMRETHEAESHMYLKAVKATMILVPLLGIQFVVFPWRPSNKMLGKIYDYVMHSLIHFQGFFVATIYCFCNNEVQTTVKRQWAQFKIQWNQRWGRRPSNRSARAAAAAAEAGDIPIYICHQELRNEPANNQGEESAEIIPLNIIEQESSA
T1 sequence (looked up) 2: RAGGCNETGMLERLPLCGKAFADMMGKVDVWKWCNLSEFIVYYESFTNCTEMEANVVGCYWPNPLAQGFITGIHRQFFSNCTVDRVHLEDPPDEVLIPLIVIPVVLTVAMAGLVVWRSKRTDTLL

B1: Compound 0156 (peptide)
peptide: H[Aib]EGTFTSDVSSYLEGQAAK([AEEA-AEEA-γGlu-C18 diacid])EFIAWLVRGRGQAPGQEPEASELSTAALGRLSAELHELATLPRTETGSGSP-NH2
B2: Compound 0039 (peptide)
peptide: HGEGTFTSDVSSYLEEQAARK([AEEA-AEEA-γGlu-C14 diacid])FIEWLVRGK([AEEA-AEEA-γGlu-C14 diacid])GEASELSTAALGRLSAELHELATLPRTETGSGSP-NH2
B3: Compound 0254 (peptide)
peptide: HWEGTFTSDVSSYLEEQAARK([AEEA-AEEA-γGlu-Trx-C20 diacid])FIEWLVRGRGEGGGGGASELSTAALGRLSAELHELATLPRTETGSGSP-NH2
B4: Compound 0235 (peptide)
peptide: H[Aib]EGTFTSDVSSYLEEQAAREFIAWLVRGK([AEEA-AEEA-γGlu-Decanoyl(10-O(3-COOH-Ph))])K([AEEA-AEEA-γGlu-Decanoyl(10-O(3-COOH-Ph))])GGGGASELSTAALGRLSAELHELATLPRTETGSGSP-NH2
B5: Compound 0160 (peptide)
peptide: H[Aib]EGTFTSDVSSYLEEQAARK([γGlu-C18 diacid])FIAWLVRGRGGGGGGGGK([γGlu-C18 diacid])EASELSTAALGRLSAELHELATLPRTETGSGSP-NH2
B6: Compound 0234 (peptide)
peptide: HWEGTFTSDVSSYLEEQAAREFIEWLVRGK([AEEA-AEEA-γGlu-Decanoyl(10-(4-HOOC-PhO))])GEGGGGGASELSTAALGRLSAELHELK([AEEA-AEEA-γGlu-Decanoyl(10-(4-HOOC-PhO))])TLPRTETGSGSP-NH2
B7: Compound 0157 (peptide)
peptide: H[Aib]EGTFTSDVSSYLEGQAAK([AEEA-AEEA-γGlu-C20 diacid])EFIAWLVRGRGQAPGQEPEASELSTAALGRLSAELHELATLPRTETGSGSP-NH2
B8: Compound 0180 (peptide)
peptide: H[Aib]EGTFTSDVSSYLEEQAAREFIEWLVRGRK([εLys-AEEA-AEEA-γGlu-Trx-C20 diacid])EAEAEASELSTAALGRLSAELHELATLPRTETGSGSP-NH2
B9: Compound 0144 (peptide)
peptide: H[Aib]EGTFTSDVSSYLEEQAAREFIAWLVK([AEEA-AEEA-γGlu-C18 diacid])GRGGGGGEASELSTAALGRLSAELHELATLPRTETGSGSP-NH2
B10: Compound 0040 (peptide)
peptide: H[Aib]EGTFTSDVSSYLEGQAAK([AEEA-AEEA-γGlu-C18 diacid])EFIAWLVRGRGGGGEASELSTAALGRLSAELHELATLPRTETGSGSP-NH2
B11: Compound 0146 (peptide)
peptide: H[Aib]EGTFTSDVSSYLEEQAAREFIEWLVRGK(Butyryl(4-SO2NHCO(CH2)16Tz))GGGASELSTAALGRLSAELHELATLPRTETGSGSP-NH2
B12: Compound 0179 (peptide)
peptide: H[Aib]EGTFTSDVSSYLEEQAAREFIEWLVRGRK([AEEA-AEEA-γGlu-Trx-C20 diacid])EAEAEASELSTAALGRLSAELHELATLPRTETGSGSP-NH2
B13: Compound 0159 (peptide)
peptide: H[Aib]EGTFTSDVSSYLEGQAAK([εLys-AEEA-AEEA-γGlu-C18 diacid])EFIAWLVRGRGGGGGGGGGEASELSTAALGRLSAELHELATLPRTETGSGSP-NH2
B14: Compound 0141 (peptide)
peptide: H[Aib]EGTFTSDVSSYLEEQAAREFIAWLVRGRK([γGlu-C20 diacid])EASELSTAALGRLSAELHELATLPRTETGSGSP-NH2
B15: Compound 0255 (peptide)
peptide: HWEGTFTSDVSSYLEEQAARK([AEEA-AEEA-γGlu-Undecanoyl(11-OPh(4-COOH))])FIEWLVRGRGEGGGGGASELSTAALGRLSK([AEEA-AEEA-γGlu-Undecanoyl(11-OPh(4-COOH))])ELHELATLPRTETGSGSP-NH2
B16: Compound 0232 (peptide)
peptide: HWEGTFTSDVSSYLEEQAARK([AEEA-AEEA-γGlu-Decanoyl(10-(4-HOOC-PhO))])FIEWLVRGRGEGGGGGASELSTAALGRLSAELHELK([AEEA-AEEA-γGlu-Decanoyl(10-(4-HOOC-PhO))])TLPRTETGSGSP-NH2
B17: Compound 0231 (peptide)
peptide: HWEGTFTSDVSSYLEEQAARK([AEEA-AEEA-γGlu-Decanoyl(10-(4-HOOC-PhO))])FIEWLVRGRGEGGGGGASELSTAALGRLSK([AEEA-AEEA-γGlu-Decanoyl(10-(4-HOOC-PhO))])ELHELATLPRTETGSGSP-NH2
B18: Compound 0191 (peptide)
peptide: H[Aib]EGTFTSDVSSYLEGQAAREFIAWLVRGRGQEPK([AEEA-AEEA-γGlu-C18 diacid])GQAPASRLSTEALGRLSAELHELATLPRTETGSGSP-NH2
B19: Compound 0202 (peptide)
peptide: H[Aib]EGTFTSDVSSYLEGQAAK([AEEA-AEEA-γGlu-C20 diacid])EFIAWLVRGRGQEPGQAPEASELSTAALGRLSAELHELATLPRTETGSGSP-NH2
B20: Compound 0233 (peptide)
peptide: HWEGTFTSDVSSYLEEQAAREFIEWLVRGK([AEEA-AEEA-γGlu-Decanoyl(10-(4-HOOC-PhO))])GEGGGGGASELSTAALGRLSK([AEEA-AEEA-γGlu-Decanoyl(10-(4-HOOC-PhO))])ELHELATLPRTETGSGSP-NH2
B21: Compound 0142 (peptide)
peptide: [Desaminohistidyl][Aib]EGTFTSDVSSYLEEQAAREFIAWLVRGRK([γGlu-C20 diacid])EASELSTAALGRLSAELHELATLPRTETGSGSP-NH2
B22: Compound 0147 (peptide)
peptide: H[Aib]EGTFTSDVSSYLEEQAAREFIEWLVRGK(Butyryl(4-SO2NHCO(CH2)16Tz))ASELSTAALGRLSAELHELATLPRTETGSGSP-NH2
B23: Compound 0145 (peptide)
peptide: H[Aib]EGTFTSDVSSYLEEQAAREFIAWLVRGRGK(Butyryl(4-SO2NHCO(CH2)16Tz))GGGASELSTAALGRLSAELHELATLPRTETGSGSP-NH2
B24: Compound 0132 (peptide)
peptide: H[Aib]EGTFTSDVSSYLEEQAAREFIAWLVRGK([AEEA-AEEA-γGlu-C18 diacid])GGEASELSTAALGRLSAELHELATLPRTETGSGSP-NH2
B25: Compound 0151 (peptide)
peptide: H[Aib]EGTFTSDVSSYLEGQAAREFIAWLVRGRK([AEEA-AEEA-γGlu-C18 diacid])GGGGEASELSTAALGRLSAELHELATLPRTETGSGSP-NH2

Biological target: T1, human amylin-3 (a) receptor
Test: cell-based or functional assay

First: B1
Second: B2
The “Human AmyR3 potency [EC50 (pM)]” value of the first is lower: 22.6 pM for the first, 59.5 pM for the second.

First: B3
Second: B4
The “Human AmyR3 potency [EC50 (pM)]” value of the first is lower: 7.7 pM for the first, 24 pM for the second.

Going from B5 to B6, the “Human AmyR3 potency [EC50 (pM)]” value rises from 27.3 pM to 38.4 pM.

Going from B7 to B8, the “Human AmyR3 potency [EC50 (pM)]” value rises from 18.4 pM to 37 pM.

Going from B9 to B10, the “Human AmyR3 potency [EC50 (pM)]” value falls from 16.8 pM to 7.7 pM.

Compared with B11, B12 is higher in “Human AmyR3 potency [EC50 (pM)]” value: 14 pM for the first, 35.9 pM for the second.

Going from B13 to B14, the “Human AmyR3 potency [EC50 (pM)]” value falls from 19.3 pM to 13.2 pM.

Going from B15 to B16, the “Human AmyR3 potency [EC50 (pM)]” value rises from 28.6 pM to 74.2 pM.

Compared with B17, B18 is lower in “Human AmyR3 potency [EC50 (pM)]” value: 68 pM for the first, 54.8 pM for the second.

First: B19
Second: B20
The “Human AmyR3 potency [EC50 (pM)]” value of the first is lower: 28.4 pM for the first, 182 pM for the second.

Going from B21 to B22, the “Human AmyR3 potency [EC50 (pM)]” value rises from 15.4 pM to 33.7 pM.

Compared with B23, B24 is higher in “Human AmyR3 potency [EC50 (pM)]” value: 16.5 pM for the first, 34.9 pM for the second.

With B25 the “Human AmyR3 potency [EC50 (pM)]” value was 9.5 pM.

Biological target: human GLP-1 receptor (human, UniProt P43220 24-463)
Test: cell-based or functional assay

First: B1
Second: B2
The “Human GLP-1R potency [EC50 (pM)]” value of the first is lower: 22.6 pM for the first, 34.8 pM for the second.

Compared with B3, B4 is higher in “Human GLP-1R potency [EC50 (pM)]” value: 8.9 pM for the first, 10.4 pM for the second.

Compared with B5, B6 is higher in “Human GLP-1R potency [EC50 (pM)]” value: 11.9 pM for the first, 38.9 pM for the second.

First: B7
Second: B8
The “Human GLP-1R potency [EC50 (pM)]” value of the first is higher: 28.7 pM for the first, 6.4 pM for the second.

First: B9
Second: B10
The “Human GLP-1R potency [EC50 (pM)]” value of the first is lower: 7.1 pM for the first, 20.7 pM for the second.

Compared with B11, B12 is lower in “Human GLP-1R potency [EC50 (pM)]” value: 25.7 pM for the first, 8.8 pM for the second.

First: B13
Second: B14
The “Human GLP-1R potency [EC50 (pM)]” value of the first is lower: 30.3 pM for the first, 43.3 pM for the second.

Compared with B15, B16 is higher in “Human GLP-1R potency [EC50 (pM)]” value: 2.5 pM for the first, 6.4 pM for the second.

Compared with B17, B18 is higher in “Human GLP-1R potency [EC50 (pM)]” value: 5.6 pM for the first, 5.9 pM for the second.

Going from B19 to B20, the “Human GLP-1R potency [EC50 (pM)]” value rises from 10.5 pM to 46.4 pM.

Going from B21 to B22, the “Human GLP-1R potency [EC50 (pM)]” value falls from 88.2 pM to 36.8 pM.

First: B23
Second: B24
The “Human GLP-1R potency [EC50 (pM)]” value of the first is higher: 11.9 pM for the first, 3 pM for the second.

With B25 the “Human GLP-1R potency [EC50 (pM)]” value was 10.4 pM.
